The experiment concerns the target small GTPase Rac1 (UniProt P63000 1-189). Kind of experiment: immunoprecipitation with Tiam-1 antiserum from MCF-7 line lysates, blot with anti-Rac1. How it is done: In brief, 70% confluent cultures of 25 mL flask were detached, pelleted and following 2 times washing with PBS. The pellet were lysed in RIPA buffer then centrifuged and the supernatant was pre-cleared by addition of 5 μL of protein A/G-sepharose beads slurry (Pierce) for 2 hours, then the supernatant was incubated with the antibody of interest for 24 hours. 10 μL of protein A/G slurry was added for 2 hours, collected by pulse centrifugation, washed 3 times with lysis buffer, resuspended in 2×SDS loading buffer subjected to SDS-PAGE, followed by immunoblotting with the appropriate antibodies.

B1: Tiam-1, Rac1-specific guanine nucleotide exchange factor (RacGEF) (enzyme)
chain: GNAESQHVEHEFYGEKHASLGRKHTSRSLRLSHKTRRTRHASSGKVIHRNSEVSTRSSSTPSIPQSLAENGLEPFSQDGTLEDFGSPIWVDRVDMGLRPVSYTDSSVTPSVDSSIVLTAASVQSMPDTEESRLYGDDATYLAEGGRRQHSYTSNGPTFMETASFKKKRSKSADIWREDSLEFSLSDLSQEHLTSNEEILGSAEEKDCEEARGMETRASPRQLSTCQRANSLGDLYAQKNSGVTANGGPGSKFAGYCRNLVSDIPNLANHKMPPAAAEETPPYSNYNTLPCRKSHCLSEGATNPQISHSNSMQGRRAKTTQDVNAGEGSEFADSGIEGATTDTDLLSRRSNATNSSYSPTTGRAFVGSDSGSSSTGDAARQGVYENFRRELEMSTTNSESLEEAGSAHSDEQSSGTLSSPGQSDILLTAAQGTVRKAGALAVKNFLVHKKNKKVESATRRKWKHYWVSLKGCTLFFYESDGRSGIDHNSIPKHAVWVENSIVQAVPEHPKKDFVFCLSNSLGDAFLFQTTSQTELENWITAIHSACATAVARHHHKEDTLRLLKSEIKKLEQKIDMDEKMKKMGEMQLSSVTDSKKKKTILDQIFVWEQNLEQFQMDLFRFRCYLASLQGGELPNPKRLLAFASRPTKVAMGRLGIFSVSSFHALVAARTGETGVRRRTQAMSRSASKRRSRFSSLWGLDTTSKKKQGRPSINQVFGEGTEAVKKSLEGIFDDIVPDGKREKEVVLPNVHQHNPDCDIWVHEYFTPSWFCLPNNQPALTVVRPGDTARDTLELICKTHQLDHSAHYLRLKFLIENKMQLYVPQPEEDIYELLYKEIEICPKVTQSIHIEKSDTAADTYGFSLSSVEEDGIRRLYVNSVKETGLASKKGLKAGDEILEINNRAADALNSSMLKDFLSQPSLGLLVRTYPELEEGVELLESPPHRVDGPADLGESPLAFLTSNPGHSLCSEQGSSAETAPEETEGPDLESSDETDHSSKSTEQVAAFCRSLHEMNPSDQSPSPQDSTGPQLATMRQLSDADKLRKVICELLETERTYVKDLNCLMERYLKPLQKETFLTQDELDVLFGNLTEMVEFQVEFLKTLEDGVRLVPDLEKLEKVDQFKKVLFSLGGSFLYYADRFKLYSAFCASHTKVPKVLVKAKTDTAFKAFLDAQNPKQQHSSTLESYLIKPIQRILKYPLLLRELFALTDAESEEHYHLDVAIKTMNKVASHINEMQKIHEEFGAVFDQLIAEQTGEKKEVADLSMGDLLLHTTVIWLNPPASLGKWKKEPELAAFVFKTAVVLVYKDGSKQKKKLVGSHRLSIYEDWDPFRFRHMIPTEALQVRALASADAEANAVCEIVHVKSESEGRPERVFHLCCSSPESRKDFLKAVHSILRDKHRRQLLKTESLPSSQQYVPFGGKRLCALKGARPAMSRAVSAPSKSLGRRRRRLARNRFTIDSDAVSASSPEKESQQPPGGGDTDRWVEEQFDLAQYEEQDDIKETDILSDDDEFCESVKGASVDRDLQERLQATSISQRERGRKTLDSHASRMAQLKKQAALSGINGGLESASEEVIWVRREDFAPSRKLNTEI
notes: Endogenous protein in MCF-7 cell lysate
With B1, the binding result is “binds”.

For the origin of these results see patent publication US20110124572A1 (published 2011).
